± gives the standard error. Variants at the floor of the assay were thinned out.
B1: glmS ribozyme (parent)
chain: AUAAAAGCGCCAGAACUACAGAAAUGUAGUUGACGAGGAGGAGGUUUAUCGAAUUUUCGGCGGAUGCCUCCAAA

How the values were obtained:
Conditions in all cases: with glucosamine-6-phosphate
glucosamine-6-phosphate [1] = variants of: B1; assay: self-cleavage kobs at 640 uM GlcN6P; higher = faster cleavage; RNA array
In short: (§1)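 Sequenced MiSeq chips were the platform: E. coli RNA polymerase transcribed barcoded ribozyme variants on them in situ, and a hybridised Cy3 probe tracked these at 37 °C. After glucosamine-6-phosphate (40 μM to 10 mM) in HEPES/KCl/Mg(OAc)2 buffer was flowed in, tiles were imaged over ~14 h. Signals normalised to baseline and to non-cleaving reference variants were reduced to per-tile medians and fit to one- or two-exponential decays to obtain kobs. kcat and KM were derived through weighted Michaelis–Menten fits across concentrations.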

glucosamine-6-phosphate [2] = variants of: B1; assay: self-cleavage kobs at 2500 uM GlcN6P; higher = faster cleavage; RNA array
In short: as §1

glucosamine-6-phosphate [3] = variants of: B1; assay: self-cleavage kobs at 10000 uM GlcN6P; higher = faster cleavage; RNA array
In short: as §1

| Variant | self-cleavage kobs at 640 uM GlcN6P (glucosamine-6-phosphate [1]) [s⁻¹] | self-cleavage kobs at 2500 uM GlcN6P (glucosamine-6-phosphate [2]) [s⁻¹] | self-cleavage kobs at 10000 uM GlcN6P (glucosamine-6-phosphate [3]) [s⁻¹] |
| --- | --- | --- | --- |
| U30C G32U A64G | 7.24e-05 ± 2.3e-05 | 0.000195 ± 5.7e-05 |  |
| C19A U54C C58A C68G | 9.88e-05 ± 2.4e-05 | 0.00036 ± 0.0001 |  |
| G32U C34A G44A C68A | < 1e-05 | < 1e-05 |  |
| C16A G44C U54C | < 1e-05 |  |  |
| U31G C58G A64U | < 1e-05 |  |  |
| C19A A33U C50G U56C C58U G63U C68G | 0.000599 ± 0.00016 |  |  |
| C34A A53G U56C | < 1e-05 |  |  |
| A33G A39C G44A C71G | < 1e-05 | < 1e-05 |  |
| G29U A48U A53U G63A | < 1e-05 | < 1e-05 |  |
| U17G G63A | < 1e-05 | < 1e-05 |  |
| G29A U30A A42G A53G | 9.25e-05 ± 2.3e-05 |  |  |
| A15U G40U U55A U56A | 5.38e-05 ± 1.6e-05 |  |  |
| U30A G40A C50U | < 1e-05 | < 1e-05 |  |
| G32A G66U C68G | 0.000111 ± 3.9e-05 |  |  |
| U30C G32C U55A | 8.42e-05 ± 1.7e-05 | 0.000128 ± 3.1e-05 |  |
| U30G C50U A64G G66U | < 1e-05 | < 1e-05 |  |
| A33C A36U G37U C71U | < 1e-05 | < 1e-05 |  |
| G32U C58A C67A | 7.59e-05 ± 1.8e-05 | 0.000241 ± 4.9e-05 |  |
| A15G A48G | 4.16e-05 ± 1.4e-05 | 0.000216 ± 4e-05 | 8.59e-05 ± 1.3e-05 |
| U31A G60U C71A | < 1e-05 | < 1e-05 |  |
| C16U U46C A53U | 0.000328 ± 7.3e-05 | 0.00078 ± 0.00025 |  |

| Variant | self-cleavage kobs at 640 uM GlcN6P (glucosamine-6-phosphate [1]) [s⁻¹] | self-cleavage kobs at 2500 uM GlcN6P (glucosamine-6-phosphate [2]) [s⁻¹] | self-cleavage kobs at 10000 uM GlcN6P (glucosamine-6-phosphate [3]) [s⁻¹] |
| --- | --- | --- | --- |
| G32C A33U C68U C71G | < 1e-05 | < 1e-05 |  |
| G26U A42G U55C | 0.0103 ± 0.0029 |  |  |
| U31A A42U U57A A64G C71A | < 1e-05 |  |  |
| U30G A39U U45G | 0.000324 ± 5.9e-05 | 0.00055 ± 0.0001 | 0.0014 ± 0.00018 |
| G32A G41A C50U | < 1e-05 | < 1e-05 |  |
| U31G G44A C68U | < 1e-05 |  |  |
| A33C A42U | < 1e-05 | < 1e-05 |  |
| U31G U55A U69G | 7.53e-05 ± 1.6e-05 | 7.74e-05 ± 2.2e-05 |  |
| G29A G44U U54A U57A C61U C68A | < 1e-05 | < 1e-05 |  |
| U31C G60A U69A | < 1e-05 |  |  |
| G32C U56A U65G U69G | 0.000283 ± 0.0001 | 6.06e-05 ± 3e-05 |  |
| U30G A48U U65A U69G C70U | 4.35e-05 ± 2e-05 |  |  |
| G32C G37U G38C | < 1e-05 | < 1e-05 |  |
| U30A C71G | 0.000371 ± 0.00016 | 0.000129 ± 5.8e-05 | 0.00032 ± 7.6e-05 |
| A15G C16G C50G U54C | 0.00183 ± 0.00059 |  |  |
| G32A A48U U65C | < 1e-05 |  |  |
| G29A U69A | 7.98e-05 ± 2.2e-05 | 3.9e-05 ± 9.8e-06 |  |
| C16U A53U U54G C58A | 3.02e-05 ± 1.5e-05 | 3.59e-05 ± 1.1e-05 | 0.000172 ± 2e-05 |
| G29C G43U A64U C68G | < 1e-05 |  |  |
| A33C G66C C68G C70A | < 1e-05 |  |  |
| G29U C58A C68A | 0.000121 ± 3.2e-05 | 3.43e-05 ± 1.5e-05 |  |

| Variant | self-cleavage kobs at 640 uM GlcN6P (glucosamine-6-phosphate [1]) [s⁻¹] | self-cleavage kobs at 2500 uM GlcN6P (glucosamine-6-phosphate [2]) [s⁻¹] | self-cleavage kobs at 10000 uM GlcN6P (glucosamine-6-phosphate [3]) [s⁻¹] |
| --- | --- | --- | --- |
| A33U G41A C58A U65G | < 1e-05 | < 1e-05 |  |
| G29C A33C C34G G38C A52G | < 1e-05 |  |  |
| A33C G44C C58U C61A | < 1e-05 | < 1e-05 |  |
| U30A G40U G60C C61A | < 1e-05 | < 1e-05 |  |
| C16U U46C U55A C70U | 0.00101 ± 0.00034 | 0.00219 ± 0.0006 | 0.00226 ± 0.00047 |
| G29U G32U G38A C61A C67U | 0.000133 ± 3.8e-05 | 0.00034 ± 9.8e-05 |  |
| A33U U45C C50A | < 1e-05 | < 1e-05 |  |
| G32A C50U C70G | 0.000126 ± 4.6e-05 |  |  |
| U31C A42U G44A | < 1e-05 | < 1e-05 |  |
| C16A G59U G60A | < 1e-05 |  |  |
| C16A G51U C67G | 0.000109 ± 4.2e-05 |  |  |
| U31A G32C C61U | < 1e-05 |  |  |
| A33U G44U U46G | < 1e-05 | < 1e-05 |  |
| G29U C34U U55A | < 1e-05 | < 1e-05 |  |
| C16U A39G C58A | 9.4e-05 ± 1.7e-05 | 0.000347 ± 4.1e-05 |  |
| C16U G59C U65G | < 1e-05 | < 1e-05 |  |
| A15U G38U A39C G41U U49G C70G C71G | < 1e-05 |  |  |
| A15U U30A C68G | 9.94e-05 ± 2.9e-05 |  |  |
| U30C C34A A36G A52U | < 1e-05 | < 1e-05 |  |
| C16U A36U G59U A64U | < 1e-05 |  |  |
| C16A G41U | < 1e-05 |  |  |
